The target in this assay is chimeric receptor comprising mouse TNFR1 external domain (residues 1-210 of SEQ ID NO:1) linked to the transmembrane and intracellular domains of mouse RANK (residues 210-625 of SEQ ID NO:2) (mouse). Put plainly: cell-based or functional assay.

Our source for the osteoclast formation; lowest TNFα concentration still active values is US20080305501A1.

Sequence of chimeric receptor comprising mouse TNFR1 external domain (residues 1-210 of SEQ ID NO:1) linked to the transmembrane and intracellular domains of mouse RANK (residues 210-625 of SEQ ID NO:2) (mouse) (chain, as listed by the source mutant): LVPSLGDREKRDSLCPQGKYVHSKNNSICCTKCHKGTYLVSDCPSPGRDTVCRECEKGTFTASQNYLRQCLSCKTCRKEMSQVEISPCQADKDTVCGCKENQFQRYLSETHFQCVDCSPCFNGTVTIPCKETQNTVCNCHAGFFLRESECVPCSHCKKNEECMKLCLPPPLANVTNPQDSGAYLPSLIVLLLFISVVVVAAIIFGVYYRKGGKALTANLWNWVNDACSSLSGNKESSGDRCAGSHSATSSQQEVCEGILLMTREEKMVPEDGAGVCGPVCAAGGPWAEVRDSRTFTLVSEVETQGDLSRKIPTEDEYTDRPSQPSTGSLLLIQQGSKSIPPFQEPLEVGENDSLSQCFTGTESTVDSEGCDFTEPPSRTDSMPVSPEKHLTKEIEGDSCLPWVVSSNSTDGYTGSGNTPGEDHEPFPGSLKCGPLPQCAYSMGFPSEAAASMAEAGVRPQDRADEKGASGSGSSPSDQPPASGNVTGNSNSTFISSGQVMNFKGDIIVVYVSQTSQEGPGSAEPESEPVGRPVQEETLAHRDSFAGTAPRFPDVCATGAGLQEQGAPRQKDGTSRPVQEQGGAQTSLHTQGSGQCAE

For the substance “Recombinant mouse TNFα (410-TRNC-050, R&D Systems) (from UniProt P06804 80-235) (ligand)”, the osteoclast formation; lowest TNFα concentration still active amounted to 1 ng/mL.
